Laboratory results: patent US20200172619A1 (UNIVERSIT T STUTTGART, published 2020)

T1: human TNFR1-Fc fusion protein (human, UniProt P19438 30-211)
T1 construct: Provided by Baliopharm AG; Coated at 1 ug/ml in the ELISA; also called huTNFR1-Fc; immobilized human TNFR1; not shown: Fc part not described
T1 sequence (looked up): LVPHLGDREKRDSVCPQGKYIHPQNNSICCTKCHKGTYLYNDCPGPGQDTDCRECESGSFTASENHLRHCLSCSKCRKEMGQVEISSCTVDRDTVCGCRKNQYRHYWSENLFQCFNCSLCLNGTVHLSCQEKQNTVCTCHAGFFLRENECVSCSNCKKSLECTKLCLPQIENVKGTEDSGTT

T2: TNFR1 on the surface of cells (HT1080, HeLa, Kym-1) (human, UniProt P19438 30-455)
T2 sequence (looked up): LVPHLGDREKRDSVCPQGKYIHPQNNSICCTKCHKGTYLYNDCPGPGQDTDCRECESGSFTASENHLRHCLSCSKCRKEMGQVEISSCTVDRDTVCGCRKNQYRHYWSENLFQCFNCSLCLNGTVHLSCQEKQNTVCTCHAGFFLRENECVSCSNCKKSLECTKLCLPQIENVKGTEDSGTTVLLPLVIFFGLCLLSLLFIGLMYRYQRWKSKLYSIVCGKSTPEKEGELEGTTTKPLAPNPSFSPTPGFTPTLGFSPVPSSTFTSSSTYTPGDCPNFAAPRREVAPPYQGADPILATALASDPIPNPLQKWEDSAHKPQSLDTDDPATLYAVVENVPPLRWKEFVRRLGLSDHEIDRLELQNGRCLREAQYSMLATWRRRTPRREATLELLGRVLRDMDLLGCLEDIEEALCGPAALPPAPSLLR

B1: 13.7N-CD3N-hFc1k (bispecific antibody)
chain 1: HVQLVQSGAEVKKPGSSVKVSCKASGYTFTDFYINWVRQAPGQGLEWIGEIVPSQGEAKYNDKFKARVTITADKSTSTAYMELSSLRSEDTAVYYCARWDFLDYWGQGTTVTVSSGGGGSGGGGSGGGGSDVQMTQSPSSLSASVGDRVTITCRSSQSLLHSNGNTYLHWYQQKPGKAPKLLIYTVSNRFSGVPSRFSGSGSGTDFTLTISSLQPEDFATYYCSQSTHVPYTFGGGTKVEIKAAADKTHTCPPCPAPPVAGPSVFLFPPKPKDTLMISRTPEVTCVVVDVSHEDPEVKFNWYVDGVEVHNAKTKPREEQYNSTYRVVSVLTVLHQDWLNGKEYKCKVSNKGLPSSIEKTISKAKGQPREPSVFPLAPSSKSTSGGTAALGCLVKDYFPSDIAVEWESGALTSGVHTFPAVLQSSGLYSLSSVVTVPSSSLGTQTYSCSVMHEALHNHYTQKSVEPKSC
chain 2: DIQMTQSPSSLSASVGDRVTITCRASQDIRNYLNWYQQKPGKAPKLLIYYTSRLHSGVPSRFSGSGSGTDFTFTISSLQPEDIATYYCQQGNTLPWTFGQGTKLEIKRGGGGSGGGGSGGGGSQVQLVQSGAEVKKPGSSVKVSCKASGGTFSGYTMNWVRQAPGQGLEWMGLINPYKGVSTYNGKFKDRVTITADKSTSTAYMELSSLRSEDTAVYYCARSGYYGDSDWYFDVWGQGTLVTVSSSGGGSGGGGSDKTHTCPPCPAPPVAGPSVFLFPPKPKDTLMISRTPEVTCVVVDVSHEDPEVKFNWYVDGVEVHNAKTKPREEQYNSTYRVVSVLTVLHQDWLNGKEYKCKVSNKGLPSSIEKTISKAKGQPREPSVFIFPPSDEQLKSGTASVVCLVNNFYPRDIAVEWEVDNALQSGNSQESVTEQDSKDSTYSLSSTLTLSKADYEKHKVYSCSVMHEALHNHYTQKSFNRGECGGGGSGGGGSGGGGSGTGGSGG
notes: also called scFv13.7-CD3-Hinge-Fc1k
B2: Fv13.7x-Fc1k (Fc fusion)
chain 1: HVQLVQSGAEVKKPGSSVKVSCKASGYTFTDFYINWVRQAPGQGLEWIGEIVPSQGEAKYNDKFKARVTITADKSTSTAYMELSSLRSEDTAVYYCARWDFLDYWGQGTTVTVSSGTGGGSGPSVFLFPPKPKDTLMISRTPEVTCVVVDVSHEDPEVKFNWYVDGVEVHNAKTKPREEQYNSTYRVVSVLTVLHQDWLNGKEYKCKVSNKGLPSSIEKTISKAKGQPREPSVFIFPPSDEQLKSGTASVVCLVNNFYPRDIAVEWEVDNALQSGNSQESVTEQDSKDSTYSLSSTLTLSKADYEKHKVYSCSVMHEALHNHYTQKSFNRGEC
chain 2: DVQMTQSPSSLSASVGDRVTITCRSSQSLLHSNGNTYLHWYQQKPGKAPKLLIYTVSNRFSGVPSRFSGSGSGTDFTLTISSLQPEDFATYYCSQSTHVPYTFGGGTKVEIKGTGGGSGPSVFLFPPKPKDTLMISRTPEVTCVVVDVSHEDPEVKFNWYVDGVEVHNAKTKPREEQYNSTYRVVSVLTVLHQDWLNGKEYKCKVSNKGLPSSIEKTISKAKGQPREPSVFPLAPSSKSTSGGTAALGCLVKDYFPSDIAVEWESGALTSGVHTFPAVLQSSGLYSLSSVVTVPSSSLGTQTYSCSVMHEALHNHYTQKSVEPKSC
notes: CH2 carries A327G, A330S and P331S (EU numbering)

Columns and labels:
[1] = molecular target: T3, CD3 on the surface of CD3-transfected Jurkat cells; assay: flow cytometry on CD3-transfected Jurkat cells
T3 construct: whole, on cells; also called CD3 expressing Jurkat cells
T3 sequence (P07766 23-207): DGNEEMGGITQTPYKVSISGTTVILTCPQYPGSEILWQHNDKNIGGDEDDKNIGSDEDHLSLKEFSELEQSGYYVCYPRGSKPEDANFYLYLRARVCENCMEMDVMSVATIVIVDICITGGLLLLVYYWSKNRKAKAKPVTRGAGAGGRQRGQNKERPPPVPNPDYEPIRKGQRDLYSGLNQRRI
Method: (§1) Cells were detached and transferred to a 96 well microtiter plate at a concentration of 100.000-250.000 per well in 100 μl PBA (2% FCS, 0.2% NaN3 in sterile PBS).

[2] = molecular target: T1, human TNFR1-Fc fusion protein; assay: ELISA, human TNFR1-Fc fusion protein
Method: Microtiter plates were coated with 100 μl of TNFFR1-Fc fusion protein (1 μg/ml in PBS) and incubated at 4° C. overnight.

[3] = molecular target: T2, TNFR1 on the surface of cells (HT1080, …); assay: cell-based or functional assay
[4] = molecular target: T2, TNFR1 on the surface of cells (HT1080, …); assay: flow cytometry on TNFR1-expressing HT1080 cells
Method: as §1

[5] = molecular target: T1, human TNFR1-Fc fusion protein; assay: QCM (Attana), real-time binding, one-to-one fit
Method: (§2) FIG. 36. […] Five concentrations between 128 nM and 4 nM were used to generate the kinetic data in b) and a one-to-one binding algorithm was employed for fitting.

[6] = molecular target: T2, TNFR1 on the surface of cells (HT1080, …); assay: cell-based or functional assay; remark: listed apart in the source
[7] = molecular target: T1, human TNFR1-Fc fusion protein; assay: ELISA, immobilized human TNFR1-Fc
[8] = molecular target: T1, human TNFR1-Fc fusion protein; assay: ELISA, immobilized human TNFR1-Fc; remark: listed apart in the source
Method: (§3) Microtiter plates were coated with 100 μl of TNFFR1-Fc fusion protein (1 μg/ml in PBS) and incubated at 4° C. overnight. The residual binding sites were blocked with 2% MPBS (skim milk in PBS, 200 μl per well) at room temperature for 2 hours and subsequently washed twice with PBS. 100 μl of the samples diluted in 2% MPBS were incubated at room temperature for 1 hour prior to the last incubation step with 100 μl of the HRP conjugated detection antibodies in 2% MPBS. Bound protein was detected with 100 μl TMB substrate solution, the HRP-reaction was stopped by the addition of 50 μl 1 M H2SO4 and the absorption at the wavelength of 450 nm was measured using the Infinite microtiter plate reader (TECAN, Maennedorf, Switzerland). Between each incubation step and in advance of the detection, the plates were washed three times with PBST and twice with PBS.

[9] = molecular target: T1, human TNFR1-Fc fusion protein; assay: QCM (Attana), real-time binding, 128 nM to 4 nM, one-to-one fit
Method: as §2

[10] = molecular target: T1, human TNFR1-Fc fusion protein; assay: ELISA, human TNFR1-Fc (CHO-produced protein, Example 14)
Method: as §3

[11] = molecular target: T2, TNFR1 on the surface of cells (HT1080, …); assay: cell-based or functional assay; remark: listed apart in the source
[12] = molecular target: T2, TNFR1 on the surface of cells (HT1080, …); assay: cell-based or functional assay; remark: listed apart in the source

Binder	EC50 [1] [nM]	EC50 [2] [nM]	Cytotxicity IC50 [3] [nM]	EC50 [4] [nM]	koff [5] [s⁻¹]	kon [5] [M⁻¹ s⁻¹]	IL-8 Inhibition IC50 [6] [nM]	EC50 [7] [nM]	fold reduced binding affinity compared with Fab13.7 [8] [fold]	Kd [9] [nM]	EC50 [10] [nM]	factor of increased inhibitory potential (IL-8 inhibition) compared to ATROSAB [11] [fold]	fold reduced bioactivity (IL-8 inhibition) compared to Fab13.7 [11] [fold]	IC50, Cell death induction [nM] (Kym-1 cells, 0.01 nM TNF) [12]	IC50, IL-6 [nM] (HeLa cells, 0.1 nM TNF) [12]	IC50, IL-8 [nM] (HT1080 cells, 0.1 nM TNF) [12]
B1	1.6	3.5	0.8	3.7	–	–	–	–	–	–	–	–	–	–	–	–
B2	–	–	–	–	0.000983	369000	48	1.9	2.1	2.66	0.37	2.8	3.7	16.2	54.5	24.2
